# Test results as given in paper PMC6123711, “Conformational signatures in β-arrestin2 reveal natural biased agonism at a G-protein-coupled receptor” (Communications Biology, 2018).
# Legend:
# Format in all cases: cell-based, human
# [1] = system: β-arrestin2–Galr2 interaction (Galr2); experiment: β-Arrestin2 recruitment using NanoBit technology; conditions: for Log(τ/KA), β-Arrestin2: HEK293 cells, luminescence at 5 min after agonist, operational model (Eq. 2)
# Text: (§1) The β-arrestin recruitment assays were developed based on a structural complementation assay using NanoBit technology. Briefly, NanoBit technology is a system that basically consists of Nano luciferase (Nluc), which is a small protein that catalyzes a bright luminescent reaction. To create a complementation system, Nluc was separated into two subunits that individually produce very little enzymatic activity. […] Because of this low affinity for each other, these two fragments can bind when they are in close proximity. The interaction between the LgBit and the SmBit can be driven by the interactions of the fusion partners, allowing them to study protein–protein interaction in live cells. As the interaction is reversible, the association and dissociation can be monitored. There is no lag time in the loss of luminescence, and so the immediate detection allows for accurate assessment of temporal dynamics. […] To accurately monitor β-arrestin recruitment, four plasmid combinations between LgBit and SmBit with the fusion partners Galr2 and β-arrestins were screened. The plasmid combination with the highest luminescence signal was chosen for further studies (Fig. 2a, Supplementary Fig. 1). Using data points at 5 min after ligand stimulation, we obtained dose–response curves that corresponded to β-arrestin1/2 recruitment (Fig. 2d, e, Supplementary Fig. 2).
# (§2) Fig. 2 The effect of different endogenous ligands in β-arrestin1/2 recruitment. a Schematic representation of the structural complementation assay used to monitor β-arrestin1/2–Galr2 interactions. Kinetic traces of β-arrestin1 (b) and β-arrestin2 (c) recruitment after Galr2 activation with 1 μM of three different agonists. Dose–response curves for recruitment of β-arrestin1 (d), and β-arrestin2 (e). Luminescence signal intensity obtained at 5 min after agonist stimulation was measured. […] The results are expressed as mean ± s.e.m. of three experiments performed in triplicate; each triplicate was averaged before calculating the s.e.m. The arrows indicate the time at which the cells were treated with the different ligands
# (§3) Quantification of bias between each pathway was performed using Galanin as a reference ligand. All incubations for the different signaling assays were performed in serum-free medium to prevent peptide degradation.
# HEK293 cells were obtained from the American Type Culture Collection (ATCC, CRL-1573; Manassas, VA, USA). […] After a 10-min incubation, 25 μl substrate (furimazine) was added and once every minute subsequent luminescence measurements were taken for 10 min for signal stabilization. A total of 10 μl ligand was then added to each well and luminescence measurements were recorded immediately and once every minute for 1 h (Synergy 2 Multi-Mode Microplate Reader BioTek, Winooski, VT, USA).
# [2] = system: β-arrestin1–Galr2 interaction (Galr2); experiment: β-Arrestin1 recruitment using NanoBit technology; conditions: for Log(τ/KA), β-Arrestin1: HEK293 cells, luminescence at 5 min after agonist, operational model (Eq. 2); for Log(τ/KA), β-Arrestin1 / ΔLog(τ/KA), β-Arrestin1: mean ± s.e.m. of three experiments in triplicate; for ΔLog(τ/KA), β-Arrestin1: normalized to Galanin (reference agonist), in parenthesis
# Text: as §1, §2, §3
# HEK293 cells were obtained from the American Type Culture Collection (ATCC, CRL-1573; Manassas, VA, USA). They were maintained in Dulbecco’s modified Eagle’s medium (DMEM) supplemented with 10% fetal bovine serum (FBS), 100 U/ml penicillin G, and 100 μg/ml streptomycin (Invitrogen; Carlsbad, CA, USA). During the experiments, the cells were tested for mycoplasma using a Universal Mycoplasma Detection Kit (ATCC). At 1 day before transfection, the cells were seeded in 96-well plates at a density of 2.5 × 10^4 cells per well. A mixture containing 50 ng β-arrestin construct containing the LgBit or SmBit and 50 ng Galr2 containing one of the two domains of Nluc and 0.2 μl Lipofectamine 2000 (Invitrogen) was prepared and added to each well. We tested four β-arrestin-Galr2 spatial orientations. […] After a 10-min incubation, 25 μl substrate (furimazine) was added and once every minute subsequent luminescence measurements were taken for 10 min for signal stabilization. A total of 10 μl ligand was then added to each well and luminescence measurements were recorded immediately and once every minute for 1 h (Synergy 2 Multi-Mode Microplate Reader BioTek, Winooski, VT, USA).
# [3] = system: Galr2–β-arrestin2–clathrin complex; experiment: β-arrestin2–clathrin interactions (NanoBit); conditions: for Log(τ/KA), Clathrin:β-arrestin2 / formation of Galr2–β-arrestin2–clathrin complex: data at 5 min after agonist; for Log(τ/KA), Clathrin:β-arrestin2: operational model (Eq. 2); for Log(τ/KA), Clathrin:β-arrestin2 / ΔLog(τ/KA), Clathrin:β-arrestin2: mean ± s.e.m. of three experiments in triplicate; for formation of Galr2–β-arrestin2–clathrin complex: dose–response, normalized to Galanin; for ΔLog(τ/KA), Clathrin:β-arrestin2: normalized to Galanin (reference agonist), in parenthesis
# Text: The interaction between β-arrestin2 and clathrin induced by the activation of Galr2 was examined using the NanoBit technology. We measured real-time association of the protein complex Galr2–β-arrestin2–clathrin. We constructed β-arrestin2 and clathrin subunit A tagged with LgBit or SmBit at the C or N termini and screened eight different plasmid combinations, out of which only one combination (β-arrestin2–LgBit:SmBit–clathrin) responded to ligand stimulation (Fig. 3, Supplementary Fig. 3). Before ligand stimulation, Galr2, β-arrestin2, and clathrin were not in close proximity and so the basal luminescence was very low. […] A time course experiment was initially performed to determine the time at which the maximal increase in luminescence occurred following agonist stimulation. All ligands except for Fmoc-dA4-dQ14 induced different fold increase in luminescence immediately after ligand treatment (Fig. 3b). […] Galanin- and Spexin-induced increases in luminescence were attenuated by pretreatment of cmpd101, a G-protein-coupled receptor kinase 2/3 (GRK2/3) inhibitor, indicating contribution of GRK2/3 in the formation of Galr2–β-arrestin2–clathrin complex (Fig. 3).
# The arrows indicate the time when the cells were treated with different ligands. […] The results are expressed as mean ± s.e.m. of three experiments performed in triplicate. Each triplicate was averaged before calculating the s.e.m.
# as §3
# One day before transfection, cells were seeded in 96-well plates at a density of 2.5 × 10^4 cells per well. A mixture containing 35 ng β-arrestin construct containing the LgBit or SmBit, 35 ng clathrin subunit A containing one of the two domains of Nluc and 30 ng untagged receptor, and 0.2 μl Lipofectamine 2000 (Invitrogen) was prepared and added to each well. We followed the assay manufacturer’s instructions and tested eight β-arrestin-clathrin plasmid combinations. In only one plasmid combination we were able to observe luminescent signal and it was chosen for further experiments. At 24 h post transfection, medium was aspirated and replaced with 100 μl OPTIMEM at room temperature. After a 10-min incubation, 25 μl substrate (furimazine) was added and the luminescence was monitored once every minute for 10 min. Then, 10 μl ligand was added to each well and the luminescence values were recorded immediately and once every minute for 1 h (Synergy 2 Multi-Mode Microplate Reader BioTek).
# [4] = mean ± s.e.m. of three experiments in triplicate
# [5] = dose–response, data at 5 min after ligand stimulation, compared with Galanin
Molecule,"Log(τ/KA), β-Arrestin2 [1, 4]","ΔLog(τ/KA), β-Arrestin2 ([1]; normalized to Galanin (reference agonist), in parenthesis, mean ± s.e.m. of three experiments in triplicate)","Log(τ/KA), β-Arrestin1 [2]","ΔLog(τ/KA), β-Arrestin1 [2]","Log(τ/KA), Clathrin:β-arrestin2 [3]",formation of Galr2–β-arrestin2–clathrin complex [3],"ΔLog(τ/KA), Clathrin:β-arrestin2 [3]","agonism in β-arrestin2 recruitment [1, 5]","agonism in β-arrestin1 recruitment [2, 5]"
Galanin [reference compound],7.20 ± 0.02,0.00 ± 0.02,7.18 ± 0.01,0.00 ± 0.01,8.00 ± 0.18,highest response,0.00 ± 0.20,–,–
"Spexin (peptide, UniProt Q9BT56 27-116, looked up, Spexin, endogenous peptide ligand of Galr2 and Galr3; synthesized by AnyGen) Spexin: APQRLLERRNWTPQAMLYLKGAQGRRFISDQSRRKDLSDRPLPERRSPNPQLLTIPEAATILLASLQKSPEDEEKNFDQTRFLEDSLLNW",6.40 ± 0.03,–,6.60 ± 0.08,−0.60 ± 0.01,6.22 ± 0.10,lower potency and efficacy than Galanin,−1.80 ± 0.10,partial agonists,partial agonists
